Like-named read-outs stand apart in the source and are kept apart here.
T1: mtSSB (Homo sapiens, UniProt Q04837 15-148)
T1 sequence: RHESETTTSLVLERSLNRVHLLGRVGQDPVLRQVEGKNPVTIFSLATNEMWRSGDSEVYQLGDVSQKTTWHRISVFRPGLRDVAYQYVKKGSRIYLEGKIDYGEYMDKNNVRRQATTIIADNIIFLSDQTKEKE


What was measured:
mtSSB [1] = target: T1, mtSSB; test: EMSA
mtSSB [2] = target: T1, mtSSB; test: EMSA; remark: listed apart in the source

| Binder | binding result (mtSSB [1]) | binding result (mtSSB [2]) |
| --- | --- | --- |
| AGAACCUGUUGAACAAAAGC (ssRNA) [20 nt RNA probe] | binds |  |
| AGAACCTGTTGAACAAAAGC (ssDNA) [20 nt ssDNA probe] |  | binds |

Reference: PMC6468249
